Laboratory results taken from patent US20250388672A1 (Ablynx, published 2025).

B1: T017000062 (bispecific antibody)
chain: EVQLVESGGGLVQPGGSLRLSCTFSGGTFSSYTMGWFRQAPGKEREFVAEVRWGGVTTYSNSLKDRFSISEDSVKNAVYLQMNSLKPEDTAVYYCAAVRQMYMTVVPDYWGQGTLVTVSSGGGGSGGGGSGGGGSGGGGSGGGGSGGGGSGGGGSEVQLVESGGGPVQAGGSLRLSCAASGRTYRGYSMGWFRQAPGKEREFVAAIVWSGGNTYYEDSVKGRFTISRDNAKNTMYLQMTSLKPEDSATYYCAAKIRPYIFKIAGQYDYWGQGTLVTVSSGAADYKDHDGDYKDHDIDYKDDDDKGAAHHHHHH
notes: Bispecific Nanobody construct with tags, expressed in Pichia; also called 20CD019C07-35GS-T0170117G03-FLAG3-HIS6; CD20xCD3 (cluster A)
B2: T017000053 (bispecific antibody)
chain: EVQLVESGGGLVQPGGSLRLSCTFSGGTFSSYTMGWFRQAPGKEREFVAEVRWGGVTTYSNSLKDRFSISEDSVKNAVYLQMNSLKPEDTAVYYCAAVRQMYMTVVPDYWGQGTLVTVSSGGGGSGGGGSGGGGSGGGGSGGGGSGGGGSGGGGSEVQLVESGGGLVQPGGSLRLSCAASGDIYKSFDMGWYRQAPGKQRDLVAVIGSRGNNRGRTNYADSVKGRFTISRDGTGNTVYLLMNKLRPEDTAIYYCNTAPLVAGRPWGRGTLVTVSSGAADYKDHDGDYKDHDIDYKDDDDKGAAHHHHHH
notes: Bispecific Nanobody construct with tags, expressed in Pichia; also called 20CD019C07-35GS-T0170060E11-FLAG3-HIS6; CD20xCD3 (cluster B)
B3: T017000016 (bispecific antibody)
chain: EVQLVESGGGLVQPGGSLRLSCTFSGGTFSSYTMGWFRQAPGKEREFVAEVRWGGVTTYSNSLKDRFSISEDSVKNAVYLQMNSLKPEDTAVYYCAAVRQMYMTVVPDYWGQGTLVTVSSGGGGSGGGGSGGGGSGGGGSGGGGSGGGGSGGGGSEVQLVESGGGSVQAGGSLRLSCAASGRTFSTNPMGWFRQVPGKERELIAAVRWADGNTFYADSVKGRFTISRDNAKKTVYLQMNSLKSEDTATYYCAAGRPWSAYHSPAEYVHWGQGTLVTVSSGAADYKDHDGDYKDHDIDYKDDDDKGAAHHHHHH
notes: Bispecific Nanobody construct with tags, expressed in Pichia; also called 20CD019C07-35GS-T0170033G03-FLAG3-HIS6; CD20xCD3 (cluster C)
B4: T017000040 (bispecific antibody)
chain: EVQLVESGGGLVQPGGSLRLSCAASGDIYKSFDMGWYRQAPGKQRDLVAVIGSRGNNRGRTNYADSVKGRFTISRDGTGNTVYLLMNKLRPEDTAIYYCNTAPLVAGRPWGRGTLVTVSSGGGGSGGGGSGGGGSGGGGSGGGGSGGGGSGGGGSEVQLVESGGGLVQPGGSLRLSCTFSGGTFSSYTMGWFRQAPGKEREFVAEVRWGGVTTYSNSLKDRFSISEDSVKNAVYLQMNSLKPEDTAVYYCAAVRQMYMTVVPDYWGQGTLVTVSSGAADYKDHDGDYKDHDIDYKDDDDKGAAHHHHHH
notes: Bispecific Nanobody construct with tags, expressed in Pichia; also called T0170060E11-35GS-20CD019C07-FLAG3-HIS6; CD3xCD20 (cluster B)
B5: T017000036 (bispecific antibody)
chain: EVQLVESGGGPVQAGGSLRLSCAASGRTYRGYSMGWFRQAPGKEREFVAAIVWSGGNTYYEDSVKGRFTISRDNAKNTMYLQMTSLKPEDSATYYCAAKIRPYIFKIAGQYDYWGQGTLVTVSSGGGGSGGGGSGGGGSGGGGSGGGGSGGGGSGGGGSEVQLVESGGGLVQPGGSLRLSCTFSGGTFSSYTMGWFRQAPGKEREFVAEVRWGGVTTYSNSLKDRFSISEDSVKNAVYLQMNSLKPEDTAVYYCAAVRQMYMTVVPDYWGQGTLVTVSSGAADYKDHDGDYKDHDIDYKDDDDKGAAHHHHHH
notes: Bispecific Nanobody construct with tags, expressed in Pichia; also called T0170117G03-35GS-20CD019C07-FLAG3-HIS6; CD3xCD20 (cluster A)
B6: T017000021 (bispecific antibody)
chain: EVQLVESGGGSVQAGGSLRLSCAASGRTFSTNPMGWFRQVPGKERELIAAVRWADGNTFYADSVKGRFTISRDNAKKTVYLQMNSLKSEDTATYYCAAGRPWSAYHSPAEYVHWGQGTLVTVSSGGGGSGGGGSGGGGSGGGGSGGGGSGGGGSGGGGSEVQLVESGGGLVQPGGSLRLSCTFSGGTFSSYTMGWFRQAPGKEREFVAEVRWGGVTTYSNSLKDRFSISEDSVKNAVYLQMNSLKPEDTAVYYCAAVRQMYMTVVPDYWGQGTLVTVSSGAADYKDHDGDYKDHDIDYKDDDDKGAAHHHHHH
notes: Bispecific Nanobody construct with tags, expressed in Pichia; also called T0170033G03-35GS-20CD019C07-FLAG3-HIS6; CD3xCD20 (cluster C)
B7: T017000061 (bispecific antibody)
chain: EVQLVESGGGLVQPGGSLRLSCTFSGGTFSSYTMGWFRQAPGKEREFVAEVRWGGVTTYSNSLKDRFSISEDSVKNAVYLQMNSLKPEDTAVYYCAAVRQMYMTVVPDYWGQGTLVTVSSGGGGSGGGGSGGGGSGGGGSGGGGSGGGGSGGGGSEVQLVESGGGLVQGGGSLSLSCAASGRTFSSYAMAWFRQPPGKEREFVASISWSGENTNYRNSVKGRFTISRDNAKNTVYLQMNSLKPEDTAVYYCAAKIAKTYPDNWYWTKSNNYNYWGQGTLVTVSSGAADYKDHDGDYKDHDIDYKDDDDKGAAHHHHHH
B8: T017000057 (bispecific antibody)
chain: EVQLVESGGGLVQPGGSLRLSCTFSGGTFSSYTMGWFRQAPGKEREFVAEVRWGGVTTYSNSLKDRFSISEDSVKNAVYLQMNSLKPEDTAVYYCAAVRQMYMTVVPDYWGQGTLVTVSSGGGGSGGGGSGGGGSGGGGSGGGGSGGGGSGGGGSEVQLVESGGGLVQAGGSLRLSCAASGRSFNMNPLGWFRQSPGKEREFVAAHRWSDGNTYYVDSVKGRFTISRDNAKNTVYLQMNSLKSEDTAVYYCAAGRPWSAFRSPGEYVYWGQGTLVTVSSGAADYKDHDGDYKDHDIDYKDDDDKGAAHHHHHH
B9: T017000045 (bispecific antibody)
chain: B6 chain
B10: T017000056 (bispecific antibody)
chain: EVQLVESGGGLVQPGGSLRLSCTFSGGTFSSYTMGWFRQAPGKEREFVAEVRWGGVTTYSNSLKDRFSISEDSVKNAVYLQMNSLKPEDTAVYYCAAVRQMYMTVVPDYWGQGTLVTVSSGGGGSGGGGSGGGGSGGGGSGGGGSGGGGSGGGGSEVQLVESGGGAVQPGGSLRLSCAASGIRISRNMMGWFRQAPGKQRDLVARITPGGDTYYVDSVKGRFSISKDNAKNTVYLQMNSLKPEDTAVYYCNSYSTLGSWGQGTLVTVSSGAADYKDHDGDYKDHDIDYKDDDDKGAAHHHHHH
B11: T017000101 (bispecific antibody)
chain: EVQLVESGGGLVQAGGSLRLSCAASGITFSINTMGWYRQAPGKQRELVALISSIGDTYYADSVKGRFTISRDNAKNTVYLQMNSLKPEDTAVYYCKRFRTAAQGTDYWGQGTLVTVSSGGGGSGGGGSGGGGSGGGGSGGGGSGGGGSGGGGSEVQLVESGGGPVQAGGSLRLSCAASGRTYRGYSMGWFRQAPGKEREFVAAIVWSGGNTYYEDSVKGRFTISRDNAKNTMYLQMTSLKPEDSATYYCAAKIRPYIFKIAGQYDYWGQGTLVTVSSGAADYKDHDGDYKDHDIDYKDDDDKGAAHHHHHH
B12: T017000100 (bispecific antibody)
chain: EVQLVESGGGPVQAGGSLRLSCAASGRTYRGYSMGWFRQAPGKEREFVAAIVWSGGNTYYEDSVKGRFTISRDNAKNTMYLQMTSLKPEDSATYYCAAKIRPYIFKIAGQYDYWGQGTLVTVSSGGGGSGGGGSGGGGSGGGGSGGGGSGGGGSGGGGSEVQLVESGGGLVQAGGSLRLSCAASGITFSINTMGWYRQAPGKQRELVALISSIGDTYYADSVKGRFTISRDNAKNTVYLQMNSLKPEDTAVYYCKRFRTAAQGTDYWGQGTLVTVSSGAADYKDHDGDYKDHDIDYKDDDDKGAAHHHHHH

biological target: T1, human CD20 (human, UniProt P11836 1-297); assay: cell-based or functional assay
T1 sequence (looked up): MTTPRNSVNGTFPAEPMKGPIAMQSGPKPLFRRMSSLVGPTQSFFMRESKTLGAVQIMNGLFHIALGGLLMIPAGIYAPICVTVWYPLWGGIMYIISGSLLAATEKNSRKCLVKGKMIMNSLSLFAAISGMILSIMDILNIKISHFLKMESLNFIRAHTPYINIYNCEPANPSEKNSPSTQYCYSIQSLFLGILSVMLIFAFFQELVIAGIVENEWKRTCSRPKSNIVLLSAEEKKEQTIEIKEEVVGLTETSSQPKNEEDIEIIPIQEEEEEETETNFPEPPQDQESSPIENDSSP

Binder	IC50 (M), flow cytometry based T cell mediated Ramos killing assay, E:T 1 [M]	IC50 (M), flow cytometry based T cell mediated Ramos killing assay, E:T 2 [M]	IC50 (M), flow cytometry based T cell mediated Ramos killing assay, E:T 5 [M]	IC50 (M), flow cytometry based T cell mediated Ramos killing assay, E:T 10 [M]
B1	2.5e-08	7.1e-09	8.7e-09	7.3e-09

biological target: T1, human CD20; assay: cell-based or functional assay; remark: another data set of the same source

Binder	EC50 (M) (title: IC50), T cell dependent B-cell (Ramos) killing assay
B1	6.4e-10
B2	1.8e-09

biological target: T1, human CD20; assay: flow cytometry on human CD20 positive Ramos cells

Binder	EC50 [nM]
B3	1.5
B4	32
B5	21
B1	1.9
B6	4.7
B2	1.8

biological target: T2, human TCR/CD3 complex on purified primary human T cells (human); assay: flow cytometry on primary human T cells
T2 construct: Natural complex on T cells isolated from buffy coats of healthy donors; also called hu T cells; purified primary T cells
T2 sequence (delta, as listed by the source limits assumed, chain 1 of 4): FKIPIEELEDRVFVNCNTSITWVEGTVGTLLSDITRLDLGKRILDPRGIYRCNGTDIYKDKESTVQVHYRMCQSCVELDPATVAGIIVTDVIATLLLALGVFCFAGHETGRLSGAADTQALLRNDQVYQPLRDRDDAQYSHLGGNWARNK
T2 sequence (gamma, as listed by the source limits assumed, chain 2 of 4): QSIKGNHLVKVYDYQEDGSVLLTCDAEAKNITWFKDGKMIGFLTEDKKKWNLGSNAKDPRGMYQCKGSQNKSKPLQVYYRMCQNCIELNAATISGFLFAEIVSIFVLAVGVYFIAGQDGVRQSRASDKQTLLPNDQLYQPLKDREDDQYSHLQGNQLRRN
T2 sequence (epsilon, as listed by the source limits assumed, chain 3 of 4): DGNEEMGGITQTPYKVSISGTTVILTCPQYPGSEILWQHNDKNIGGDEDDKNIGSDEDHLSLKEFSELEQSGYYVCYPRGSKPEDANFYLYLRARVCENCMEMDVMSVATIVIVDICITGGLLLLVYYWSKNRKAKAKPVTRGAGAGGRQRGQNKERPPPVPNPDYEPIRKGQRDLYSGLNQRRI
T2 sequence (zeta, as listed by the source limits assumed, chain 4 of 4): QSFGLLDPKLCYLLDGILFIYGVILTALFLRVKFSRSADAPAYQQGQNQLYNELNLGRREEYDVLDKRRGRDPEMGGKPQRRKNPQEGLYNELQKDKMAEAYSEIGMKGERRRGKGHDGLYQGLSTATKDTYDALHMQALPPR

Binder	EC50 [nM]
B5	35
B1	89

biological target: T1, human CD20; assay: cell-based or functional assay; remark: another data set of the same source

Binder	EC50 (M) of IFN-γ secretion by human T cells (ELISA, 72 h) in the xCELLigence based CHO-K1 human CD20 killing assay [M]
B1	6.2e-10
B2	9.1e-10

biological target: T1, human CD20; assay: cell-based or functional assay; remark: another data set of the same source

Binder	% lysis (% dead cells at 500 nM Nanobody minus no Nanobody control), Ramos killing assay, E:T 10:1 [%]	Average IC50 (M), flow cytometry based primary human T cell mediated Ramos killing assay, E:T 10:1 [M]
B3	4	9.2e-09
B7	13	2.9e-08
B4	29	6.8e-09
B8	3	1.4e-09
B5	26	5.5e-09
B1	22	3.9e-09
B9	0	–
B2	22	7e-09
B10	4	1.5e-08

biological target: T1, human CD20; assay: cell-based or functional assay; remark: another data set of the same source

Binder	Average IC50 (M), xCELLigence based human T cell mediated CHO-K1 CD20 killing assay, E:T 30:1, 44 h [M]
B3	6.81e-12
B4	4.89e-10
B5	1.04e-09
B1	7.88e-10
B6	1.52e-10
B2	2.81e-10

biological target: human HER2 (human, UniProt P04626 23-1255); assay: cell-based or functional assay

Binder	IC50 (M), xCELLigence based cytotoxicity (readout 18 h), MCF-7, E/T 15:1 [M]	IC50 (M), xCELLigence based cytotoxicity (readout 18 h), SKBR3, E/T 15:1 [M]
B11	1.1e-10	2.6e-11
B12	6.9e-11	9.5e-12
